Laboratory results reported in paper PMC9605926, “Safety of [^177Lu]Lu-NeoB treatment: a preclinical study characterizing absorbed dose and acute, early, and late organ toxicity” (European Journal of Nuclear Medicine and Molecular Imaging, 2022).

Test: Dosimetry: absorbed organ dose from biodistribution data (MIRD scheme, RADAR mouse phantom)
Format: in vivo
Experimental: Data obtained during the in vivo biodistribution studies were used to calculate the absorbed dose for each organ according to the MIRD-scheme. The time integrated activity concentration coefficients were determined by fitting exponential curves to the activity concentration data points at 1, 4, 24, 48, 96, and 168 h p.i. and integrating these curves over time. The least squares fitting analysis was performed with GraphPad Prism software. The S-values for lutetium-177 were based on the 24 g realistic RADAR mouse phantom. The standard organ weights of this model were used to convert from activity concentration to activity. With this model, the absorbed dose in most organs could be calculated. S-values for organs not included in the mouse model, such as adrenal glands and prostate, were determined with the spherical node model within the Olinda/EXM code.
The absorbed doses determined from the biodistribution assay were extrapolated to the dose the animals received during the radiotoxicity study. Here, the animals received 3 consecutive injections with a 7-day interval.

[1] = female, 3× 120 MBq/1200 pmol, extrapolated cumulative
[2] = male, 3× 40 MBq/400 pmol, extrapolated cumulative
[3] = male, 3× 80 MBq/800 pmol, extrapolated cumulative
[4] = male, 3× 120 MBq/1200 pmol, extrapolated cumulative

Structure (SMILES): CC(C)CC(CC(C)C)NC(=O)[C@H](Cc1cnc[nH]1)NC(=O)CNC(=O)[C@@H](NC(=O)[C@H](C)NC(=O)[C@H](Cc1c[nH]c2ccccc12)NC(=O)[C@H](CCC(N)=O)NC(=O)[C@@H](Cc1ccccc1)NC(=O)COCC(=O)Nc1ccc(CNC(=O)CN2CCN(CC(=O)O)CCN(CC(=O)O)CCN(CC(=O)O)CC2)cc1)C(C)C [[^177Lu]Lu-NeoB, metal not drawn]
- Absorbed dose adrenal glands (female, 1× 120 MBq/1200 pmol): 0.82 Gy
- Absorbed dose brain (female, 1× 120 MBq/1200 pmol): 0.12 Gy
- Absorbed dose colon wall (female, 1× 120 MBq/1200 pmol): 1.81 Gy
- Absorbed dose heart wall (female, 1× 120 MBq/1200 pmol): 0.42 Gy
- Absorbed dose kidneys (female, 1× 120 MBq/1200 pmol): 5.24 Gy
- Absorbed dose liver (female, 1× 120 MBq/1200 pmol): 4.37 Gy
- Absorbed dose lungs (female, 1× 120 MBq/1200 pmol): 0.62 Gy
- Absorbed dose mammary fat pad (female, 1× 120 MBq/1200 pmol): 1.11 Gy
- Absorbed dose osteogenic cells (female, 1× 120 MBq/1200 pmol): 0.07 Gy
- Absorbed dose ovaries (female, 1× 120 MBq/1200 pmol): 0.53 Gy
- Absorbed dose pancreas (female, 1× 120 MBq/1200 pmol): 3.30 Gy
- Absorbed dose small intestine (female, 1× 120 MBq/1200 pmol): 1.80 Gy
- Absorbed dose spleen (female, 1× 120 MBq/1200 pmol): 0.68 Gy
- Absorbed dose stomach wall (female, 1× 120 MBq/1200 pmol): 1.31 Gy
- Absorbed dose total body (female, 1× 120 MBq/1200 pmol): 0.65 Gy
- Absorbed dose urinary bladder (female, 1× 120 MBq/1200 pmol): 0.05 Gy
- Absorbed dose adrenal glands [1]: 2.47 Gy
- Absorbed dose brain [1]: 0.35 Gy
- Absorbed dose colon wall [1]: 5.43 Gy
- Absorbed dose heart wall [1]: 1.27 Gy
- Absorbed dose kidneys [1]: 15.71 Gy
- Absorbed dose liver [1]: 13.11 Gy
- Absorbed dose lungs [1]: 1.87 Gy
- Absorbed dose mammary fat pad [1]: 3.34 Gy
- Absorbed dose osteogenic cells [1]: 0.21 Gy
- Absorbed dose ovaries [1]: 1.60 Gy
- Absorbed dose pancreas [1]: 9.89 Gy
- Absorbed dose small intestine [1]: 5.40 Gy
- Absorbed dose spleen [1]: 2.05 Gy
- Absorbed dose stomach wall [1]: 3.94 Gy
- Absorbed dose total body [1]: 1.95 Gy
- Absorbed dose urinary bladder [1]: 0.15 Gy
- Absorbed dose adrenal glands (male, 1× 40 MBq/400 pmol): 0.58 Gy
- Absorbed dose brain (male, 1× 40 MBq/400 pmol): 0.05 Gy
- Absorbed dose colon wall (male, 1× 40 MBq/400 pmol): 0.81 Gy
- Absorbed dose heart wall (male, 1× 40 MBq/400 pmol): 0.25 Gy
- Absorbed dose kidneys (male, 1× 40 MBq/400 pmol): 2.00 Gy
- Absorbed dose liver (male, 1× 40 MBq/400 pmol): 2.11 Gy
- Absorbed dose lungs (male, 1× 40 MBq/400 pmol): 0.35 Gy
- Absorbed dose mammary fat pad (male, 1× 40 MBq/400 pmol): 0.27 Gy
- Absorbed dose osteogenic cells (male, 1× 40 MBq/400 pmol): 0.03 Gy
- Absorbed dose pancreas (male, 1× 40 MBq/400 pmol): 2.23 Gy
- Absorbed dose prostate gland (male, 1× 40 MBq/400 pmol): 0.35 Gy
- Absorbed dose small intestine (male, 1× 40 MBq/400 pmol): 0.80 Gy
- Absorbed dose spleen (male, 1× 40 MBq/400 pmol): 0.50 Gy
- Absorbed dose stomach wall (male, 1× 40 MBq/400 pmol): 1.50 Gy
- Absorbed dose testes (male, 1× 40 MBq/400 pmol): 0.02 Gy
- Absorbed dose total body (male, 1× 40 MBq/400 pmol): 0.31 Gy
- Absorbed dose urinary bladder (male, 1× 40 MBq/400 pmol): 0.02 Gy
- Absorbed dose adrenal glands (male, 1× 80 MBq/800 pmol): 0.54 Gy
- Absorbed dose brain (male, 1× 80 MBq/800 pmol): 0.12 Gy
- Absorbed dose colon wall (male, 1× 80 MBq/800 pmol): 1.21 Gy
- Absorbed dose heart wall (male, 1× 80 MBq/800 pmol): 0.46 Gy
- Absorbed dose kidneys (male, 1× 80 MBq/800 pmol): 3.25 Gy
- Absorbed dose liver (male, 1× 80 MBq/800 pmol): 3.28 Gy
- Absorbed dose lungs (male, 1× 80 MBq/800 pmol): 0.87 Gy
- Absorbed dose mammary fat pad (male, 1× 80 MBq/800 pmol): 0.23 Gy
- Absorbed dose osteogenic cells (male, 1× 80 MBq/800 pmol): 0.06 Gy
- Absorbed dose pancreas (male, 1× 80 MBq/800 pmol): 2.31 Gy
- Absorbed dose prostate gland (male, 1× 80 MBq/800 pmol): 0.68 Gy
- Absorbed dose small intestine (male, 1× 80 MBq/800 pmol): 1.21 Gy
- Absorbed dose spleen (male, 1× 80 MBq/800 pmol): 0.72 Gy
- Absorbed dose stomach wall (male, 1× 80 MBq/800 pmol): 1.50 Gy
- Absorbed dose testes (male, 1× 80 MBq/800 pmol): 0.04 Gy
- Absorbed dose total body (male, 1× 80 MBq/800 pmol): 0.47 Gy
- Absorbed dose urinary bladder (male, 1× 80 MBq/800 pmol): 0.04 Gy
- Absorbed dose adrenal glands (male, 1× 120 MBq/1200 pmol): 0.66 Gy
- Absorbed dose brain (male, 1× 120 MBq/1200 pmol): 0.15 Gy
- Absorbed dose colon wall (male, 1× 120 MBq/1200 pmol): 0.93 Gy
- Absorbed dose heart wall (male, 1× 120 MBq/1200 pmol): 0.68 Gy
- Absorbed dose kidneys (male, 1× 120 MBq/1200 pmol): 3.21 Gy
- Absorbed dose liver (male, 1× 120 MBq/1200 pmol): 5.61 Gy
- Absorbed dose lungs (male, 1× 120 MBq/1200 pmol): 3.91 Gy
- Absorbed dose mammary fat pad (male, 1× 120 MBq/1200 pmol): 0.49 Gy
- Absorbed dose osteogenic cells (male, 1× 120 MBq/1200 pmol): 0.12 Gy
- Absorbed dose pancreas (male, 1× 120 MBq/1200 pmol): 1.54 Gy
- Absorbed dose prostate gland (male, 1× 120 MBq/1200 pmol): 0.37 Gy
- Absorbed dose small intestine (male, 1× 120 MBq/1200 pmol): 0.94 Gy
- Absorbed dose spleen (male, 1× 120 MBq/1200 pmol): 1.35 Gy
- Absorbed dose stomach wall (male, 1× 120 MBq/1200 pmol): 1.38 Gy
- Absorbed dose testes (male, 1× 120 MBq/1200 pmol): 0.08 Gy
- Absorbed dose total body (male, 1× 120 MBq/1200 pmol): 0.66 Gy
- Absorbed dose urinary bladder (male, 1× 120 MBq/1200 pmol): 0.08 Gy
- Absorbed dose adrenal glands [2]: 1.74 Gy
- Absorbed dose brain [2]: 0.15 Gy
- Absorbed dose colon wall [2]: 2.43 Gy
- Absorbed dose heart wall [2]: 0.75 Gy
- Absorbed dose kidneys [2]: 6.00 Gy
- Absorbed dose liver [2]: 6.33 Gy
- Absorbed dose lungs [2]: 1.05 Gy
- Absorbed dose mammary fat pad [2]: 0.81 Gy
- Absorbed dose osteogenic cells [2]: 0.09 Gy
- Absorbed dose pancreas [2]: 6.69 Gy
- Absorbed dose prostate gland [2]: 1.05 Gy
- Absorbed dose small intestine [2]: 2.40 Gy
- Absorbed dose spleen [2]: 1.50 Gy
- Absorbed dose stomach wall [2]: 4.50 Gy
- Absorbed dose testes [2]: 0.06 Gy
- Absorbed dose total body [2]: 0.93 Gy
- Absorbed dose urinary bladder [2]: 0.06 Gy
- Absorbed dose adrenal glands [3]: 1.62 Gy
- Absorbed dose brain [3]: 0.36 Gy
- Absorbed dose colon wall [3]: 3.63 Gy
- Absorbed dose heart wall [3]: 1.38 Gy
- Absorbed dose kidneys [3]: 9.75 Gy
- Absorbed dose liver [3]: 9.84 Gy
- Absorbed dose lungs [3]: 2.61 Gy
- Absorbed dose mammary fat pad [3]: 0.69 Gy
- Absorbed dose osteogenic cells [3]: 0.18 Gy
- Absorbed dose pancreas [3]: 6.93 Gy
- Absorbed dose prostate gland [3]: 2.04 Gy
- Absorbed dose small intestine [3]: 3.63 Gy
- Absorbed dose spleen [3]: 2.16 Gy
- Absorbed dose stomach wall [3]: 4.50 Gy
- Absorbed dose testes [3]: 0.12 Gy
- Absorbed dose total body [3]: 1.41 Gy
- Absorbed dose urinary bladder [3]: 0.12 Gy
- Absorbed dose adrenal glands [4]: 1.99 Gy
- Absorbed dose brain [4]: 0.44 Gy
- Absorbed dose colon wall [4]: 2.80 Gy
- Absorbed dose heart wall [4]: 2.03 Gy
- Absorbed dose kidneys [4]: 9.62 Gy
- Absorbed dose liver [4]: 16.84 Gy
- Absorbed dose lungs [4]: 11.72 Gy
- Absorbed dose mammary fat pad [4]: 1.47 Gy
- Absorbed dose osteogenic cells [4]: 0.37 Gy
- Absorbed dose pancreas [4]: 4.61 Gy
- Absorbed dose prostate gland [4]: 1.10 Gy
- Absorbed dose small intestine [4]: 2.81 Gy
- Absorbed dose spleen [4]: 4.05 Gy
- Absorbed dose stomach wall [4]: 4.14 Gy
- Absorbed dose testes [4]: 0.23 Gy
- Absorbed dose total body [4]: 1.97 Gy
- Absorbed dose urinary bladder [4]: 0.24 Gy
